Assays:
Experiment in all cases: cell-based or functional assay
[1] = biological target: T1, human IL27 receptor (IL27RA/gp130 heterodimer) on human cells (human, UniProt Q6UWB1 33-636; P40189 23-918)
[2] = biological target: T1, human IL27 receptor (IL27RA/gp130 …); remark: listed apart in the source
[3] = biological target: T2, cynomolgus IL27 receptor (IL27RA/gp130 heterodimer) on cynomolgus T cells (cynomolgus monkey)
T2 chain 1: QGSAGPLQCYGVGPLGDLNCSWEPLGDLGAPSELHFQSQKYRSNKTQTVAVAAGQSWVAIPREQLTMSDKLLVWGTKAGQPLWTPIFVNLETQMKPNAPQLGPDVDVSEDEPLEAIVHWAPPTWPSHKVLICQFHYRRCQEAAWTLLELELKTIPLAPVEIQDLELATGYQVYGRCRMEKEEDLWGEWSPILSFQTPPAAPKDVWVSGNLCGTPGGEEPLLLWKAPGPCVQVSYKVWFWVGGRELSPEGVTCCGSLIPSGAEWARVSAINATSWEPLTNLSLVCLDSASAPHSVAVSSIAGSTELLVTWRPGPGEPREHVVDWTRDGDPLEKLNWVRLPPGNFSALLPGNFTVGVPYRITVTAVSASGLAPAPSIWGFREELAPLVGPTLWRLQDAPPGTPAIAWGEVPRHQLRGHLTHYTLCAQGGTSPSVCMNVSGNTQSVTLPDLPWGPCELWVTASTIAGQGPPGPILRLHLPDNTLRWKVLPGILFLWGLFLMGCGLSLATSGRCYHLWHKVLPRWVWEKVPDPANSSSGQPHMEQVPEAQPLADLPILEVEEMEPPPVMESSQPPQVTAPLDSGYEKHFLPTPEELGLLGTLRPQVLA
T2 chain 2: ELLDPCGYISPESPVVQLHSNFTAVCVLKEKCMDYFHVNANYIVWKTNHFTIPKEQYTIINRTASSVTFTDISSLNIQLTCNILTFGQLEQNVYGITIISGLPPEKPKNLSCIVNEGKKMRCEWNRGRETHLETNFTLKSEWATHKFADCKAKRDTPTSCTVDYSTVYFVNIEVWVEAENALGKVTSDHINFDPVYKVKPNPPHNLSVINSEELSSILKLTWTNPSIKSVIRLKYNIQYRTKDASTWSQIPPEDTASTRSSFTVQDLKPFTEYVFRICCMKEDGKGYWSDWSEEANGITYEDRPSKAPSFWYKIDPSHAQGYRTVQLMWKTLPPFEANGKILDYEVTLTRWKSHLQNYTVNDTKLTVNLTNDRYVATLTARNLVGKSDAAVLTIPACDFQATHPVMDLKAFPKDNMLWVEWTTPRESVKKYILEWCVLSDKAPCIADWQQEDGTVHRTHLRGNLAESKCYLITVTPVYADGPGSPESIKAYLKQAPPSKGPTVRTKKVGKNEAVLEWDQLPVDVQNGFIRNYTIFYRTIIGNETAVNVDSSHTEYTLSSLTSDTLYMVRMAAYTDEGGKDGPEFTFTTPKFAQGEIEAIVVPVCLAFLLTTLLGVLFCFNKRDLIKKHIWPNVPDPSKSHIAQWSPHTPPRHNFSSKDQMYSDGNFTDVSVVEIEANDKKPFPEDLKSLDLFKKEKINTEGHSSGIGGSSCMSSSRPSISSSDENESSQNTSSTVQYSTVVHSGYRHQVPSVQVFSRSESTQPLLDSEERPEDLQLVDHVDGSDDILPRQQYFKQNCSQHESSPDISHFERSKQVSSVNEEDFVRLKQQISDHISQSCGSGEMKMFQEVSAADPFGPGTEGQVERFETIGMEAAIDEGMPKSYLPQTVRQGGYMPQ

[4] = biological target: T1, human IL27 receptor (IL27RA/gp130 …); remark: listed apart in the source
[5] = biological target: T1, human IL27 receptor (IL27RA/gp130 …); remark: listed apart in the source

IDO1 in CD14+ monocytes EC50 [1]: 8 pM
PD-L1 in CD14+ monocytes EC50 (human whole blood) [1]: 2 pM
pSTAT1 in CD3+ T cells EC50 (human whole blood) [1]: 0.083 nM
Monocyte IDO1 EC50 (human PBMC, CD14+ monocytes, flow cytometry) [2]: 5 pM
Monocyte PD-L1 EC50 (human whole blood, flow cytometry) [2]: 2 pM
Primary Colonocytes IDO1 activity EC50 (kynurenine by LC-MS) [2]: 5400 pM
T Cell pSTAT1 EC50 (human whole blood, CD3+ T cells, flow cytometry) [2]: 0.4 nM
T Cell pSTAT3 EC50 (human whole blood, CD3+ T cells, flow cytometry) [2]: 0.2 nM
T Cell pSTAT1 EC50 (cynomolgus whole blood, CD3+ T cells, flow cytometry) [3]: 1.74 nM
T Cell pSTAT3 EC50 (cynomolgus whole blood, CD3+ T cells, flow cytometry) [3]: 1.17 nM
IDO1 mRNA expression in primary cultured human colonocytes, average EC50 [4]: 20000 pM
pSTAT1 in CD3+ T cells from human whole blood, average EC50 [4]: 0.43 nM
pSTAT3 in CD3+ T cells from human whole blood, average EC50 [4]: 0.23 nM
Th17 Cells IL-17A IC50 (MSD immunoassay of supernatant) [5]: 5.5 pM
B1: mAb-4894 anti-IL27RA/gp130 bispecific antibody (bispecific antibody, human IgG1)
heavy 1: EVQLVESGGGLVQPGGSLRLSCAASGFTFEYFGLQWVRQAPGKGLEWIGYTSSGGNYEYYEETLKGRFTISRDNAKNSLYLQMNSLRAEDTAVYYCARTKTGDYWGQGTLVTVSSASTKGPSVFPLAPSSKSTSGGTAALGCLVKDYFPEPVTVSWNSGALTSGVHTFPAVLQSSGLYSLSSVVTVPSSSLGTQTYICNVNHKPSNTKVDKKVEPKSCEKTHTCPPCPAPEAAGAPSVFLFPPKPKDTLMISRTPEVTCVVVDVSHEDPEVKFNWYVDGVEVHNAKTKPREEQYNSTYRVVSVLTVLHQDWLNGKEYKCKVSNKALPAPIEKTISKAKGQPREPQVYTLPPSREEMTKNQVSLTCEVKGFYPSDIAVEWESNGQPENNYKTTPPVLDSDGSFFLYSKLTVDKSRWQQGNVFSCSVMHEALHNHYTQKSLSLSPGK
light 1: DIQMTQSPSSLSASVGDRVTITCRASQDIGNSLTWYQQKPGKAPKRVIFGATGLAAGVPSRFSGSGSGTDFTLTISSLQPEDFATYYCLQSKQYPYTFGQGTKLEIKRTVAAPSVFIFPPSDEQLKSGTASVVCLLNNFYPREAKVQWKVDNALQSGNSQESVTEQDSKDSTYSLSSTLTLSKADYEKHKVYACEVTHQGLSSPVTKSFNRGEC
heavy 2: QVQLVQSGAEVKKPGSSVKVSCKVSGGSISSYYWSWVRQAPGQGLEWIGRIYITGNTNYNPSLKDRVTMTVDTSTSTHYMELSSLRSEDTAVYYCAREGPKLGIFDYWGQGTLVTVSSASTKGPSVFPLAPSSKSTSGGTAALGCLVKDYFPEPVTVSWNSGALTSGVHTFPAVLQSSGLYSLSSVVTVPSSSLGTQTYICNVNHKPSNTKVDKKVEPKSCRKTHTCPPCPAPEAAGAPSVFLFPPKPKDTLMISRTPEVTCVVVDVSHEDPEVKFNWYVDGVEVHNAKTKPREEQYNSTYRVVSVLTVLHQDWLNGKEYKCKVSNKALPAPIEKTISKAKGQPREPQVYTLPPSREEMTKNQVSLTCLVKGFYPSDIAVEWESNGQPENNYKTTPPVLDSDGSFFLYSRLTVDKSRWQQGNVFSCSVMHEALHNHYTQKSLSLSPGK
light 2: DIQMTQSPSSLSASVGDRVTITCRASQSVSSSYLAWYQQKPGKAPKLLIYGTESRATGVPSRFSGSGSGTDFTLTISSLQPEDFATYYCQQYGGYPTFGGGTKVEIKRTVAAPSVFIFPPSDEQLKSGTASVVCLLNNFYPREAKVQWKVDNALQSGNSQESVTEQDSKDSTYSLSSTLTLSKADYEKHKVYACEVTHQGLSSPVTKSFNRGEC
notes: Human IgG1 EE/RR heterodimer with L234A, L235A, G237A (EU); also called GBT-IL27R-4894; GBT-IL-27R-4894
